Article doi:10.1101/2020.05.22.111005 (bioRxiv, 2020)

B1: COV2-2196 (human mAb) (antibody, V domains shown)
VH: QMQLVQSGPEVKKPGTSVKVSCKASGFTFMSSAVQWVRQARGQRLEWIGWIVIGSGNTNYAQKFQERVTITRDMSTSTAYMELSSLRSEDTAVYYCAAPYCSSISCNDGFDIWGQGTMVTVSS
VL: not shown
B2: COV2-2165 (human mAb) (antibody, V domains shown)
VH: EVQLVESGGGLVQPGGSLRLSCAASGLTVRSNYMTWVRQTPGKGLEWVSVIYSGGSTFYADSVKGRFTISRDNSKNTVYLQMNSLRAEDTAVYYCARDLVTYGLDVWGQGTTVTVSS
VL: DIQLTQSPSFLSASVGDRVTITCRASQGISNYLAWYQQKPGTAPNLLIYAASTLQSGVPSRFSGSGSGTEFTLTISSLQPEDFATYYCQLLNSHPLTFGQGTRLEIK

Biological target: SARS-CoV-2 RBD fused to mouse Fc (RBD-mFc) (SARS-CoV-2, UniProt P0DTC2)
Assay: BLI

Row | Binder | binding result
1 | B1 | binds
2 | B2 | binds
